According to patent US20130122568:
Numbering of substitutions follows the chain as printed.

Experiments:
Assay in all cases: cleavage_in_vitro
[1] = molecular target: T1, SalI (Streptomyces albus G) (UniProt Q53608); settings: NEB3, 37 C
T1 sequence: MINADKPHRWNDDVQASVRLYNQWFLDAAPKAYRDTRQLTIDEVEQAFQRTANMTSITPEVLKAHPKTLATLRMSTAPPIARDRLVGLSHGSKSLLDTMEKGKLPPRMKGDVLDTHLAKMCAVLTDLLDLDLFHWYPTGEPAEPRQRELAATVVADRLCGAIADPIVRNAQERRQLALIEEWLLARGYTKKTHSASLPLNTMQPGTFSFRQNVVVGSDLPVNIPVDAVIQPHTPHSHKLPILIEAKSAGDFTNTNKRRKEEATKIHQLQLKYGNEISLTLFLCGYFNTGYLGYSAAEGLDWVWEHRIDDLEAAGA

[2] = molecular target: T2, SalI-HF R107A (Streptomyces albus G) (UniProt Q53608); settings: NEB2, 37 C
T2 sequence: T1 sequence with R107A

[3] = tested on: T3, AvrII (Anabaena variabilis); settings: NEB1, 37 C
T3 sequence: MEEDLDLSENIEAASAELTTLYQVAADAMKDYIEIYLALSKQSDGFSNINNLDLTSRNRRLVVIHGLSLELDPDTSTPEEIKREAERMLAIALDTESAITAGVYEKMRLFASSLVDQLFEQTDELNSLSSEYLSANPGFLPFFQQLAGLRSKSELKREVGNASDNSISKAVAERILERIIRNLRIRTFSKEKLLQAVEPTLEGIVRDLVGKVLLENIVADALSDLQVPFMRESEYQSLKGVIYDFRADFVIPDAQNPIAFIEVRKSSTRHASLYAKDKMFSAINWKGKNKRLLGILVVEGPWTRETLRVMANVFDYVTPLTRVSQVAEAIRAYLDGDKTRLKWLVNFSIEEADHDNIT

[4] = tested on: T4, AvrII-HF Y104F (Anabaena variabilis); settings: NEB4, 37 C
T4 sequence: T3 sequence with Y104F

PvuII (Proteus vulgaris) = molecular target: T5, PvuII (Proteus vulgaris) (UniProt P23657); settings: NEB1, 37 C
T5 sequence: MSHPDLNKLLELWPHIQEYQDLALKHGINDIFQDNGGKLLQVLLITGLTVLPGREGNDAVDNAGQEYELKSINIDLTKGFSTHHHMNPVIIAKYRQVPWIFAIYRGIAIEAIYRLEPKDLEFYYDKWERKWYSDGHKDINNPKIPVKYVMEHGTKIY

With HindIII-digested lambda DNA as the substance, how does the activity (fidelity index) [1] read?
Its activity (fidelity index) is 32.

What about the activity (fidelity index) [2] of the same substance?
Its activity (fidelity index) is > 64000.

What does the source list for T7 DNA?
activity (fidelity index) [3]: 64; activity (fidelity index) [4]: > 1000

For pBR322, which activity (fidelity index) (PvuII (Proteus vulgaris)) is on record?
The activity (fidelity index) was 250.
